Experimental findings from US20160108110A1 (Novartis, published 2016) are described below.

For experiment [1], the target named is T1, Human ANGPTL4(26-406)-FLAG-His6-Avi (human, UniProt Q9BY76 24-406, biotin on the C-terminal Avi tag in the biotinylated preparations (immobilised form in SET, ELISA and Octet)).
T1 construct: also called full-length human ANGPTL4; hANGPTL4
T1 sequence: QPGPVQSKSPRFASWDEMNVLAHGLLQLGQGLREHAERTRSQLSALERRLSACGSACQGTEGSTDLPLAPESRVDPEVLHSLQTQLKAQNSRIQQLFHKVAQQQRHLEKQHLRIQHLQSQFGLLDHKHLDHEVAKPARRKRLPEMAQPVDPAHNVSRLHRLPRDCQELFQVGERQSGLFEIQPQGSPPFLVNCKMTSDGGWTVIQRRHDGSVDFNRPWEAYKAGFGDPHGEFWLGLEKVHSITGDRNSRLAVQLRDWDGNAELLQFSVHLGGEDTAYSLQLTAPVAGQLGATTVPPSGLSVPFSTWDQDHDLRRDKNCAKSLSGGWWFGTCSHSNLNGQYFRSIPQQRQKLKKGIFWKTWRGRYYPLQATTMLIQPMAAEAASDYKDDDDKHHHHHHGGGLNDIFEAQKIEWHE
Put plainly: SET assay. As to the method:
(§1) SET assays were performed as follows. In a 96-well polypropylene plate, a constant concentration of ANGPTL4 antibody was mixed with different concentrations of non-biotinylated human, cyno, mouse, or rat full-length ANPGLT4 protein, or human ANGPTL4 N-terminal domain protein (5-fold serial dilution) and incubated at 22° C. for 14 hours with constant shaking (300 rpm). On a pre-blocked 384-well streptavidin-coated Meso Scale Discovery (MSD) plate biotinylated ANGPTL4 (full-length human, cyno, mouse, or rat ANGPTL4, or human ANGPTL4 N-terminal domain) protein (1 nM, 15 μL per well) was immobilized and washed thereafter.
(§2) The equilibrium binding reactions (15 μL per well) were applied to the MSD plate with immobilized ANGPTL4 and incubated for 20 min at 22° C. The unbound material was removed by washing the plate 3 times with wash buffer, and the captured antibody was detected by adding Sulfo-tagged goat anti-human IgG (Meso Scale Discovery). After washing MSD read buffer T was added and the plate was developed using a Sector Imager 6000 (Meso Scale Discovery). The data were transferred to Microsoft Excel for analysis and plotted using GraphPad Prism v6. The KD values were determined by fitting the data to the following equation: […]
(§3) where Bₘₐₓ is the signal when no ANGPTL4 protein is present in solution, CAb is the constant concentration of ANGPTL4 antibody in solution, CAg is the concentration of ANGPTL4 in solution, and KD is the equilibrium dissociation constant.

The target of experiment [2] is T1, Human ANGPTL4(26-406)-FLAG-His6-Avi. Put plainly: cell-based or functional assay.
For experiment [3] the target is unchanged. Put plainly: SET assay (solution equilibrium titration, MSD), IgG. As to the method:
as §1, §2, §3

Where a chain is given by its changes, count along the chain named. Where only a bound is given, the exact number is not on record here.

B1: MOR023416 (antibody, V domains shown)
VH: QVQLLESGGGLVQPGGSLRLSCAASGFTFSDYALHWVRQAPGKGLEWVSRITYTGLYTYYADSVKGRFTISRDNSKNTLYLQMNSLRAEDTAVYYCAREHYYSSPMGGVAVDNWGQGTLVTVSS
VL: DIVLTQPPSVSGAPGQRVTISCSGSSSNIGYNTVSWYQQLPGTAPKLLIYSNNIRPSGVPDRFSGSKSGTSASLAITGLQAEDEADYYCSSWDFLIKSLVFGGGTKLTVL
notes: as MOR023415: built on parent Fab MOR021798, limits derived
As for B1, binding in experiment [1] was put at a Kd of 1 pM.

B2: MOR023419 (antibody, V domains shown)
VH: B1 VH with L56V, Y59G
VL: B1 VL
notes: as for B1
In turn, B2 had a Kd in experiment [1] of 2 pM.

B3: MOR023415 (antibody, V domains shown)
VH: B1 VH with L56F, Y59F
VL: B1 VL
notes: built on parent Fab MOR021798 with residues 48-66 of the VH replaced
B3 gave a Kd in experiment [1] of 1 pM.

B4: MOR023420 (antibody, V domains shown)
VH: B1 VH with T52S, T54M, L56S, Y57S
VL: B1 VL with S90G, W92F, F94W, L95V, I96T, K97S, S98H, L99V
notes: built on parent Fab MOR021798 with LCDR3 residues 90-99 of the VL replaced (last LCDR3 residue V kept)
B4 yielded a Kd in experiment [1] of 1 pM.

B5: MOR023418 (antibody, V domains shown)
VH: B1 VH with L56Q, T58K
VL: B1 VL
notes: as for B1
In the case of B5, the Kd in experiment [1] came out at 19 pM. This Kd is about 19-fold higher than that of the molecule before.

B6: MOR023417 (antibody, V domains shown)
VH: B1 VH with L56M, Y57W, Y59E
VL: B1 VL
notes: as for B1
B6: in experiment [1], the affinity, expressed as Kd, was 6 pM.

B7: MOR022768 (antibody, human IgG1, kappa, V domains shown)
VH: EVQLLESGGGLVQPGGSLRLSCAASGFTFSSYYLHWVRQAPGKGLEWVSYISGSGSSTYYADSVKGRFTISRDNSKNTLYLQMNSLRAEDTAVYYCARERSYAHDHWGQGTLVTVSS
VL: DIQMTQSPSSLSASVGDRVTITCRASQDIYIDLNWYQQKPGKAPKLLIYAASKLQSGVPSRFSGSGSGTDFTLTISSLQPEDFATYYCQQGYFLPQTFGQGTKVEIKR
notes: human IgG1
With B7, the “Reversal of human ANGPTL4 inhibition of human LPL EC50” value in experiment [2] was 2000 pM. The same molecule registered a Kd in experiment [3] of 4 pM.

B8: MOR022771 (antibody, human IgG1, kappa, V domains shown)
VH: EVQLLESGGGLVQPGGSLRLSCAASGFTFSSYWMHWVRQAPGKGLEWVSGISYSGSSTNYADSVKGRFTISRDNSKNTLYLQMNSLRAEDTAVYYCARDSYIYDLHWGFDNWGQGTLVTVSS
VL: B7 VL with Y30S, I31S, D32Y, K53R, G91S, F93T, L94H, Q96Y
notes: human IgG1
As to B8, in experiment [2], the “Reversal of human ANGPTL4 inhibition of human LPL EC50” value was found to be 4000 pM. In addition, binding in experiment [3] was characterised by a dissociation constant (Kd) of 29 pM.

B9: MOR023403 (antibody, human IgG1, kappa, V domains shown)
VH: EVQLLESGGGLVQPGGSLRLSCAASGFTFSSYWMHWVRQAPGKGLEWVSVINLGSQAKYAGSVKGRFTISRDNSKNTLYLQMNSLRAEDTAVYYCARDSYIYDLHWGFDNWGQGTLVTVSS
VL: B7 VL with Y30S, I31S, D32Y, K53R, G91S, F93T, L94H, Q96Y
notes: as MOR023400: built on MOR022771, limits derived; the printed CDR is one residue shorter than the parent stretch
As to B9, in experiment [1], binding was put at a Kd of 3 pM.

B10: MOR023406 (antibody, human IgG1, kappa, V domains shown)
VH: B8 VH with G50Y, S52P, S54M, S56P, S57G, T58K, N59F
VL: B7 VL with Y30S, I31S, D32Y, K53R, G91S, F93T, L94H, Q96Y
notes: as MOR023400: built on MOR022771, limits derived
On to B10, for which, in experiment [1], the Kd was found to be 3 pM.

B11: MOR023443 (antibody, human IgG1, kappa, V domains shown)
VH: B7 VH with Y50S, S52A, G53S, G55S, S56P, S57A, Y59H
VL: B7 VL
notes: as MOR023439: built on MOR022768, limits derived
As for B11, in experiment [1], the Kd is less than 1 pM.

B12: MOR023446 (antibody, human IgG1, kappa, V domains shown)
VH: B7 VH with Y50S, G53S, S54A, S56H, S57Y, T58I, Y59D
VL: B7 VL
notes: as for B11
For B12, the equilibrium dissociation constant (Kd) in experiment [1] was less than 1 pM.

B13: MOR022767 (antibody, human IgG1, kappa, V domains shown)
VH: B7 VH with S54E
VL: B7 VL
notes: human IgG1
Turning to B13, the “Reversal of human ANGPTL4 inhibition of human LPL EC50” value in experiment [2] is 2000 pM. This molecule also displayed a Kd in experiment [3] of 19 pM.

B14: MOR023447 (antibody, human IgG1, kappa, V domains shown)
VH: B7 VH with Y50S, G53S, S54A, S56V, S57Y, T58K, Y59D
VL: B7 VL
notes: as for B11
B14 showed a Kd in experiment [1] of less than 1 pM.

B15: MOR023410 (antibody, human IgG1, kappa, V domains shown)
VH: B8 VH
VL: B7 VL with Y30S, I31S, D32Y, K53R, G91A, L94A, Q96Y
notes: as MOR023407: built on MOR022771, limits derived
B15 gave a Kd in experiment [1] of less than 1 pM.

B16: MOR023439 (antibody, human IgG1, kappa, V domains shown)
VH: B7 VH with Y50G, G53S, S54G, S57Y, T58I, Y59N
VL: B7 VL
notes: built on the parent antibody for IgG conversion MOR022768 with residues 48-66 of the heavy chain replaced; Parent Fab MOR021823
In experiment [1], B16 showed a Kd of less than 1 pM.

B17: MOR023400 (antibody, human IgG1, kappa, V domains shown)
VH: B8 VH with S52P, S54Q, S56P, S57A, T58I
VL: B7 VL with Y30S, I31S, D32Y, K53R, G91S, F93T, L94H, Q96Y
notes: built on the parent antibody for IgG conversion MOR022771 with residues 48-66 of the heavy chain replaced; Parent Fab MOR021830
B17: in experiment [1], the Kd is 1 pM.

B18: MOR023402 (antibody, human IgG1, kappa, V domains shown)
VH: B8 VH with G50V, S52G, S56T, S57H
VL: B7 VL with Y30S, I31S, D32Y, K53R, G91S, F93T, L94H, Q96Y
notes: as for B10
For B18, binding in experiment [1] was put at a Kd of 1 pM.

B19: MOR023404 (antibody, human IgG1, kappa, V domains shown)
VH: B9 VH with N52P, L53Y, G54M, S55G, Q56T, G61D
VL: B7 VL with Y30S, I31S, D32Y, K53R, G91S, F93T, L94H, Q96Y
notes: as for B9
B19 gave a Kd in experiment [1] of 8 pM. Against the preceding molecule, the Kd is about 8-fold higher.

B20: MOR022769 (antibody, human IgG1, kappa, V domains shown)
VH: B7 VH with S54D, G55A
VL: B7 VL
notes: human IgG1
As to B20, the “Reversal of human ANGPTL4 inhibition of human LPL EC50” value in experiment [2] was found to be 2000 pM. Besides, binding in experiment [3] was put at a Kd of 5 pM.

B21: MOR023441 (antibody, human IgG1, kappa, V domains shown)
VH: B7 VH with Y50S, S52A, S54M, S56N, S57Y, T58I, Y59D
VL: B7 VL
notes: as for B11
The molecule B21 gave a Kd in experiment [1] of less than 1 pM.

B22: MOR023407 (antibody, human IgG1, kappa, V domains shown)
VH: B8 VH
VL: B7 VL with Y30S, I31S, D32Y, K53R, Q89F, G91M, F93Y, L94H, Q96Y
notes: built on the parent antibody for IgG conversion MOR022771 with residues 89-96 of the light chain replaced; Parent Fab MOR021830 has another HCDR2 (D53) and Q1 in the VH
For B22, the Kd in experiment [1] came out at 1 pM. That is a picomolar value.

B23: MOR023448 (antibody, human IgG1, kappa, V domains shown)
VH: B7 VH with Y50S, G53S, S54I, G55S, S56G, S57F, Y59E
VL: B7 VL
notes: as for B11
B23 had a Kd in experiment [1] of less than 1 pM.

B24: MOR023412 (antibody, human IgG1, kappa, V domains shown)
VH: B8 VH
VL: B7 VL with Y30S, I31S, D32Y, K53R, G91A, F93Y, L94P, Q96Y
notes: as for B15
Take B24: in experiment [1], the Kd is 1 pM. This counts as picomolar.

B25: MOR023413 (antibody, human IgG1, kappa, V domains shown)
VH: B8 VH
VL: B7 VL with Y30S, I31S, D32Y, K53R, G91Y, F93Y, L94P, Q96Y
notes: as for B15
The molecule B25 registered a Kd in experiment [1] of less than 1 pM.

B26: MOR023411 (antibody, human IgG1, kappa, V domains shown)
VH: B8 VH
VL: B7 VL with Y30S, I31S, D32Y, K53R, G91A, F93Y, L94H, Q96Y
notes: as for B15
With B26, in experiment [1], the Kd is 2 pM.

B27: MOR022764 (antibody, human IgG1, lambda, V domains shown)
VH: EVQLVQSGAEVKKPGESLKISCKGSGYSFSTYWISWVRQMPGKGLEWMGIIDPSQSDTRYSPSFQGQVTISADKSISTAYLQWSSLKASDTAMYYCARVYGYVYMDVWGQGTLVTVSS
VL: SYELTQPLSVSVALGQTARITCSGDNLGKKYAYWYQQKPGQAPVLVIYDKTKRPSGIPERFSGSNSGNTATLTISRAQAGDEADYYCASYDWYSSSYVFGGGTKLTVLG
notes: human IgG1
Turning to B27, the “Reversal of human ANGPTL4 inhibition of human LPL EC50” value in experiment [2] was 3000 pM. The Kd in experiment [3] amounted to 7 pM.

B28: MOR022766 (antibody, human IgG1, lambda, V domains shown)
VH: B27 VH with Q55N, S56T
VL: B27 VL
notes: human IgG1
Take B28: in experiment [2], the “Reversal of human ANGPTL4 inhibition of human LPL EC50” value was determined as 3000 pM. Besides, binding in experiment [3] was put at a Kd of 5 pM.

What is called Kd is a measure of binding affinity in units of concentration.
